Experimental findings from patent publication US7098310B1, “Heterodimers of retinoid X receptors (RXRS) and other steroid hormone receptors” (Ligand Pharmaceuticals, priority 1991, dated 2006) are described below.

B2: thyroid hormone receptor TRβ (receptor, human, UniProt P10828 1-461, looked up)
chain: MTPNSMTENGLTAWDKPKHCPDREHDWKLVGMSEACLHRKSHSERRSTLKNEQSSPHLIQTTWTSSIFHLDHDDVNDQSVSSAQTFQTEEKKCKGYIPSYLDKDELCVVCGDKATGYHYRCITCEGCKGFFRRTIQKNLHPSYSCKYEGKCVIDKVTRNQCQECRFKKCIYVGMATDLVLDDSKRLAKRKLIEENREKRRREELQKSIGHKPEPTDEEWELIKTVTEAHVATNAQGSHWKQKRKFLPEDIGQAPIVNAPEGGKVDLEAFSHFTKIITPAITRVVDFAKKLPMFCELPCEDQIILLKGCCMEIMSLRAAVRYDPESETLTLNGEMAVTRGQLKNGGLGVVSDAIFDLGMSLSSFNLDDTEVALLQAVLLMSSDRPGLACVERIEKYQDSFLLAFEHYINYRKHHVTHFWPKLLMKVTDLRMIGACHASRFLHMKVECPTELFPPLFLEVFED
notes: mature; In vitro translated; also called TR-B; c-erb-A-B

The test system of experiment [1] is RXRα-TRα and RXRα-RARα complexes. The experiment is described as follows: Gel retardation assay of RXRα interaction with TRα or RARα on palindromic TRE. The format is binding.
Another experiment has as its target T1, estrogen receptor (ER) (UniProt P03372 1-595, limits assumed).
T1 construct: In vitro translated; 35S-labelled in the column experiment
T1 sequence (looked up): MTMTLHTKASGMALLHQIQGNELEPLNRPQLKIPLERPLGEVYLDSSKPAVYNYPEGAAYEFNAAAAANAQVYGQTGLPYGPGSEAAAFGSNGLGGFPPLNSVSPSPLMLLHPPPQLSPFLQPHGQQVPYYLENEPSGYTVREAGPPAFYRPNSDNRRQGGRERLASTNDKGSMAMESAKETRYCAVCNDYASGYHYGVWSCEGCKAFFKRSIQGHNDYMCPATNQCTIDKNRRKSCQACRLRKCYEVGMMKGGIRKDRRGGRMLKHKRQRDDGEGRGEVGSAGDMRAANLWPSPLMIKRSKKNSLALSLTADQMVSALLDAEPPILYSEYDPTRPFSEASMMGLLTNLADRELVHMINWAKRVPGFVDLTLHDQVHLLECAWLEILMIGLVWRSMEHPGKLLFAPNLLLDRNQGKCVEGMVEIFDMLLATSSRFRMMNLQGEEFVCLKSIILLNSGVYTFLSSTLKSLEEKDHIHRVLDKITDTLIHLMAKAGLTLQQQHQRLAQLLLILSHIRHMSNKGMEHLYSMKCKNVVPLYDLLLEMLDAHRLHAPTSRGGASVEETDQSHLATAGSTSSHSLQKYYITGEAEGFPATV
The experiment in a line: glutathione sepharose affinity column, 35S-labelled ER, no DNA.

The next experiment deals with T2, FLAG-RXRα (human, UniProt P19793 1-462).
T2 construct: mature; in vitro translated; also called F-RXRα
T2 sequence: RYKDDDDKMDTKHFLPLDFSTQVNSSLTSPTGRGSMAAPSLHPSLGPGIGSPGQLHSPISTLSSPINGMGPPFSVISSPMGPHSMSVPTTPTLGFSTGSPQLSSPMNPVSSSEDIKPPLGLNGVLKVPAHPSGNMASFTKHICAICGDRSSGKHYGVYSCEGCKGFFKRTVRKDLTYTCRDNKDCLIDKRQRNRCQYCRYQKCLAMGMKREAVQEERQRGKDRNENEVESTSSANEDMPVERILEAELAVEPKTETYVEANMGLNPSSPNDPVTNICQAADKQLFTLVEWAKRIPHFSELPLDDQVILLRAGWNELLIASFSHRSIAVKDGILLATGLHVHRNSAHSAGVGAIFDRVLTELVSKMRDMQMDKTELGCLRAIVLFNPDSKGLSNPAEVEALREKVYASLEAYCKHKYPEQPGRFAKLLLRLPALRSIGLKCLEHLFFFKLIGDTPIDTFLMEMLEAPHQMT
The experiment is described as follows: gel retardation, 32P palindromic TRE, in vitro translated receptors. As to the method:
(§1) After incubation at room temperature for 45 minutes, the effect of antibody on slow migrating complexes was analyzed by gel retardation using ^32-labelled palindromic TRE as a probe. As a control, receptor mixtures were also incubated with preimmune serum (NI).
(§2) In vitro translated receptor protein (1 to 5 µl depending on the translation efficiency) was incubated with the ^32P-labeled oligonucleotides in a 20-µl reaction mixture containing 10 mM hepes buffer, pH 7.9, 50 mM KCl, 1 mM DTT, 2.5 mM MgCl, 10% glycerol, and 1 µg of poly(dI-dC) at 25° C. for 20 minutes. In general, relative low receptor concentration was used to obtain the clear effect of heterodimer formation. The reaction mixture was then loaded on a 5% nondenaturing polyacrylamide gel containing 0.5× TBE (1×TBE=0.089 M TRIS-borate, 0.089 M boric acid, and 0.002 M EDTA). […] When antibody was used, 1 µl of the antiserum was incubated with the specific translation products at room temperature for 45 minutes before performing the experiments described above.

In experiment [2] the target is T3, retinoid x receptor (RXRα) (human, UniProt P19793 1-462).
T3 construct: mature; In vitro translated full length receptor; 35S-labelled in the column and immunoprecipitation experiments
T3 sequence (looked up): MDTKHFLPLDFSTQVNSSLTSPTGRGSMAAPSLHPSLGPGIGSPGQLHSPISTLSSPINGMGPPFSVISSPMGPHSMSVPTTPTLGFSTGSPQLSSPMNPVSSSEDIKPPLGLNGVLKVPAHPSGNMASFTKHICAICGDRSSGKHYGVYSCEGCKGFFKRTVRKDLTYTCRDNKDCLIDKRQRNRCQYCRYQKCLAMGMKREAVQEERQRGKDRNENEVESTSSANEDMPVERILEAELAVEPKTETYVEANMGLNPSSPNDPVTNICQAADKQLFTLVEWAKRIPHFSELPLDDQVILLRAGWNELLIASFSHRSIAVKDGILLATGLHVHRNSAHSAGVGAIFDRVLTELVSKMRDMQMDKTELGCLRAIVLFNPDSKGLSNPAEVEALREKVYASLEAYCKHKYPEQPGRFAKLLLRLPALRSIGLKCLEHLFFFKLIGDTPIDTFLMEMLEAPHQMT
The experiment is described as above. As to the method: as §1, §2

The target in experiment [3] is T4, retinoic acid receptor RARα (UniProt P10276 1-462, limits assumed).
T4 construct: mature; In vitro translated
T4 sequence (looked up): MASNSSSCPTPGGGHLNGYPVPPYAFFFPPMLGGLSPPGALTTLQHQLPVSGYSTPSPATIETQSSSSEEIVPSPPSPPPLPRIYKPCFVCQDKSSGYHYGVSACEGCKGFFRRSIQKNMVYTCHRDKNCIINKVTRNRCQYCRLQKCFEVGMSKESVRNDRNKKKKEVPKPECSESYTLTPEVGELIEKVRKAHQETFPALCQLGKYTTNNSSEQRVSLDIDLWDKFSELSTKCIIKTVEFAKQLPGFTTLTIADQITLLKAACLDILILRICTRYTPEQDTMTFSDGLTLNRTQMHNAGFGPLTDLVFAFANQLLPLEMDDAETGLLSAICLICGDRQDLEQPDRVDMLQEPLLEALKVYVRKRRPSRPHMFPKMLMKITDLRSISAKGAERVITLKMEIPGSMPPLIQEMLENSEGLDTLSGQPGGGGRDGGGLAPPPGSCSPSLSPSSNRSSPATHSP
The experiment in a line: gel retardation, 32P palindromic TRE (data not shown).

In experiment [4] the target is B2. The description is as above.
Experiment [5] has as its target T5, retinoic acid receptor RARβ (UniProt P10826 1-455, limits assumed).
T5 construct: mature; In vitro translated
T5 sequence (looked up): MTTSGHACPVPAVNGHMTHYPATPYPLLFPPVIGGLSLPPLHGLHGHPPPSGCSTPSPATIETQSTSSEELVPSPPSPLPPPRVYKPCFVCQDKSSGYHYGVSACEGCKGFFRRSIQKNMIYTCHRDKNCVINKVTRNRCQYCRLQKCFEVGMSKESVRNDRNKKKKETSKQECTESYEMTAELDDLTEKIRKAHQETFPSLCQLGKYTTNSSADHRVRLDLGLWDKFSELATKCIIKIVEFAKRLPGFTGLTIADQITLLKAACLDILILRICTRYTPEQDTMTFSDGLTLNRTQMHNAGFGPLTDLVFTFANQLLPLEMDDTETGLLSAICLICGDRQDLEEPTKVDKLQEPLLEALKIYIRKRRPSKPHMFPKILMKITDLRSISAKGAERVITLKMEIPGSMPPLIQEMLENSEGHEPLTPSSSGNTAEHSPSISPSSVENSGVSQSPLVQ
The experiment is described as above.

Experiment [6] deals with T6, retinoic acid receptor RARγ (UniProt P13631 1-454, limits assumed).
T6 construct: mature; In vitro translated
T6 sequence (looked up): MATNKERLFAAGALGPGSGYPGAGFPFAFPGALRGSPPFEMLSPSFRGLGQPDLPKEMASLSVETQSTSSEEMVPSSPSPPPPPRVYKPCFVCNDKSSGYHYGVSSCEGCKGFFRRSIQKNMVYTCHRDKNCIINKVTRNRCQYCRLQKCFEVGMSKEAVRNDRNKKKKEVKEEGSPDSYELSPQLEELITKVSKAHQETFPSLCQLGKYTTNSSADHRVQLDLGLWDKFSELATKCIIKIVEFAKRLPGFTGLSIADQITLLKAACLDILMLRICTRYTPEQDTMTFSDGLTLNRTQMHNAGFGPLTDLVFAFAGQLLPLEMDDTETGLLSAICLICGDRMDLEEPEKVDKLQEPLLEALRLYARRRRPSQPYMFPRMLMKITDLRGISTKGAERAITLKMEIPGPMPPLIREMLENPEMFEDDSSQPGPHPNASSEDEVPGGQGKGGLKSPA
The experiment is described as follows: gel retardation, 32P palindromic TRE, in vitro translated receptors. The method, then: as §1, §2

For `N[C@@H](Cc1cc(I)c(Oc2ccc(O)c(I)c2)c(I)c1)C(=O)O` [T3], the “effect on migration rate of the TRα complex” value in experiment [1] (T3 10^−7 M) is listed as “slightly increases the migration rate”. The “influence of hormone on formation of slow migrating complexes” value in experiment [1] (hormone 10^−7 M, TRα and RARα with RXRα) is reported as “no clear influence”.

B1: glutathione S-transferase-RARγ fusion protein (bacterially expressed FLAG-RARγ fusion protein) (other)
chain: RYKDDDDKMATNKERLFAAGALGPGSGYPGAGFPFAFPGALRGSPPFEMLSPSFRGLGQPDLPKEMASLSVETQSTSSEEMVPSSPSPPPPPRVYKPCFVCNDKSSGYHYGVSSCEGCKGFFRRSIQKNMVYTCHRDKNCIINKVTRNRCQYCRLQKCFEVGMSKEAVRNDRNKKKKEVKEEGSPDSYELSPQLEELITKVSKAHQETFPSLCQLGKYTTNSSADHRVQLDLGLWDKFSELATKCIIKIVEFAKRLPGFTGLSIADQITLLKAACLDILMLRICTRYTPEQDTMTFSDGLTLNRTQMHNAGFGPLTDLVFAFAGQLLPLEMDDTETGLLSAICLICGDRMDLEEPEKVDKLQEPLLEALRLYARRRRPSQPYMFPRMLMKITDLRGISTKGAERAITLKMEIPGPMPPLIREMLENPEMFEDDSSQPGPHPNASSEDEVPGGQGKGGLKSPA
notes: mature; FLAG-RARγ cDNA cloned in frame into pGex-2T, expressed in bacteria, purified on glutathione sepharose 4B; also called RARγ-glutathione transferase fusion protein; glutathione transferase-RARγ; not shown: glutathione S-transferase encoded by the expression vector pGEX-2T (Pharmacia); vector linker not described
On to B1, for which, in the experiment with estrogen receptor (ER), the binding result is “no binding”.

B2: the binding result (with FLAG-RXRα; in experiment [2]) was “binds” throughout.

B3: RXRαm2 (receptor, human, UniProt P19793 1-387, looked up)
chain: MDTKHFLPLDFSTQVNSSLTSPTGRGSMAAPSLHPSLGPGIGSPGQLHSPISTLSSPINGMGPPFSVISSPMGPHSMSVPTTPTLGFSTGSPQLSSPMNPVSSSEDIKPPLGLNGVLKVPAHPSGNMASFTKHICAICGDRSSGKHYGVYSCEGCKGFFKRTVRKDLTYTCRDNKDCLIDKRQRNRCQYCRYQKCLAMGMKREAVQEERQRGKDRNENEVESTSSANEDMPVERILEAELAVEPKTETYVEANMGLNPSSPNDPVTNICQAADKQLFTLVEWAKRIPHFSELPLDDQVILLRAGWNELLIASFSHRSIAVKDGILLATGLHVHRNSAHSAGVGAIFDRVLTELVSKMRDMQMDKTELGCLRAIVLFNPDSKGLSNPA
notes: range: lacks the carboxyterminal 75 amino acids; In vitro translated deletion mutant
In the case of B3, the binding result in experiment [3], in experiment [4], in experiment [5] and in experiment [6] was “no binding” throughout.

B4: RXRαm7 (receptor, human, UniProt P19793 1-462, looked up)
chain: MDTKHFLPLDFSTQVNSSLTSPTGRGSMAAPSLHPSLGPGIGSPGQLHSPISTLSSPINGMGPPFSVISSPMGPHSMSVPTTPTLGFSTGSPQLSSPMNPVSSSEDIKPPLGLNGVLKVPAHPSGNMASFTKHICAICGDRSSGKHYGVYSCEGCKGFFKRTVRKDLTYTCRDNKDCLIDKRQRNRCQYCRYQKCLATGLHVHRNSAHSAGVGAIFDRVLTELVSKMRDMQMDKTELGCLRAIVLFNPDSKGLSNPAEVEALREKVYASLEAYCKHKYPEQPGRFAKLLLRLPALRSIGLKCLEHLFFFKLIGDTPIDTFLMEMLEAPHQMT
notes: In vitro translated deletion mutant
For the molecule B4, the binding result in experiment [3], in experiment [4], in experiment [5] and in experiment [6] was “no binding” throughout.
